Data as given in the supplement of paper PMC10567573.

B1: FAM46D (parent)
chain: FQEAMTHLQHKLICTRKPEEIRGG
B2: LCOR (parent)
chain: YKVKERLGTLKNPPKKKMKLMSG

Variants of: B1
Assay: protein stability index of a GFP-peptide fusion (GPS, HEK-293T) (PSI 1-6); higher = more stable
Details: c terminus: a fixed tail appended
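Also: lentivirally expressed fusions sorted by FACS into six bins by GFP to DsRed ratio, PSI derived from sequencing read proportions per bin multiplied by bin number.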

Variant	protein stability index
I21C	2.73
I21V	2.43
I21M	2.9
I21L	2.34
I21R	3.93
I21Q	3.05
I21S	3.74
I21D	3.26
I21Y	2.21
I21F	2.62
F1V	4.64
F1Y	3.2
F1I	3.29
F1T	3.96
F1P	4.01
F1M	3.67
F1E	5.26
F1G	4.4
F1H	4.3
F1Q	3.85
F1L	2.93
M5G	3.54
M5P	3.37
M5H	3.79
M5K	2.94

Variant	protein stability index
M5R	3.13
M5E	4.43
M5W	2.1
M5C	3.35
M5Y	2.16
G23H	2.61
G23N	3.01
G23W	2.48
G23V	2.15
G23K	3.19
G23C	2.08
G23D	3.08
G23Q	2.34
G23A	2.76
G23P	2.87
G23R	2.45
T6P	3.04
T6D	3.41
T6W	1.49
T6H	2.22
T6M	1.66
T6K	1.86
T6Q	2.13
T6I	2.15
T6F	2.11

Variant	protein stability index
T6L	2.04
T6R	2.69
P18E	3.41
P18Y	2.14
P18V	2.54
P18F	2.61
P18I	2
P18K	1.82
P18W	2.35
P18R	2.09
P18L	2.11
P18T	2.85
P18Q	2.19
P18G	2.48
R22E	3.29
R22S	2.66
R22C	2.41
R22F	2.34
R22P	2.51
R22M	2.39
R22N	2.93
R22G	2.85
R22D	3.3
R22V	3.04
R22Q	2.94

Variant	protein stability index
E19L	2.26
E19I	1.98
E19P	3.13
E19N	2.53
E19Y	2.15
E19V	2.01
E19C	1.97
E19K	2.67
E19F	2.09
E19S	2.76
E19H	2.3
E19Q	2.23
E19M	1.58
K17V	2.64
K17P	2.52
K17A	2.58
K17Q	2.33
K17E	3.03
K17M	2.87
K17R	2.02
K17I	2.68
K17S	2.75
K17G	2.77
K17C	1.91
G24P	2.64

Variant	protein stability index
G24N	2.51
G24T	2.96
G24Y	2.59
G24K	3.34
G24R	2.07
G24W	1.68
G24M	1.85
G24A	2.26
G24L	2.45
H7V	2.48
H7S	3.3
H7D	3.54
H7A	2.44
H7T	2.77
H7C	2.85
H7R	2.66
H7Y	3.71
H7L	1.67
H7E	3.86
E20P	2.39
E20M	2.03
E20C	2.3
E20D	2.69
E20Q	2.33
E20L	2.05

Variant	protein stability index
E20F	2.38
E20I	1.77
E20N	2.64
E20H	1.89
E20S	2.33
E20A	2.15
H10T	3.52
H10C	2.72
H10F	1.73
H10E	3.79
H10D	3.14
H10P	3.16
H10Y	2.11
H10G	2.67
H10S	2.5
H10K	2.94
T15M	3.17
T15K	3.42
T15D	3.01
T15W	2.31
T15N	2.79
T15C	2.42
T15I	2.21
T15G	3.56
T15P	3.04

Variant	protein stability index
A4V	2.63
A4D	2.8
A4H	2.95
A4F	1.82
A4T	3.29
A4I	2.42
A4G	2.74
A4K	3.51
A4C	2.61
A4N	3.36
A4R	2.75
A4Q	2.98
A4M	3.38
Q2F	1.6
Q2I	2.01
Q2G	3.01
Q2A	2.91
Q2L	2.32
Q2K	3.46
Q2V	1.56
Q2N	3.38
Q2W	1.67
Q2T	2.1
Q2R	4.08
Q2C	1.76

Variant	protein stability index
Q2E	4.25
Q2Y	2.19
C14Y	2.45
C14T	2.7
C14E	3.36
C14V	2.96
C14D	3.17
C14K	2.6
C14G	2.63
C14H	2.82
C14F	2.58
C14W	1.68
C14N	2.71
C14M	2.38
C14Q	2.51
Q9H	2.67
Q9E	3.36
Q9K	2.38
Q9G	2.09
Q9C	1.89
Q9N	1.79
Q9F	2.61
I13G	2.67
I13V	2.76
I13H	2.54

Variant	protein stability index
I13D	2.57
I13K	3.67
I13S	2.94
I13A	2.76
I13Q	3.58
I13C	3.07
I13E	3.67
E3K	2.17
E3Q	2.52
E3R	1.82
E3C	1.64
E3I	2.22
E3P	2.8
E3N	2.55
E3T	2.54
E3Y	2.3
E3V	2.08
E3F	1.48
E3S	1.91
E3G	2.98
L8I	2.88
L8P	2.99
L8M	3.24
L8W	1.89
L8G	3.09

Variant	protein stability index
L8V	2.07
L8K	2.29
L8T	3.35
L8A	3.91
L8R	3.31
L8F	2.42
L8D	4.31
L8H	3.57
L8N	3.76
L12K	2.9
L12G	2.72
L12S	3.4
L12R	2.71
L12Y	2.31
L12H	3.44
L12N	4.18
L12W	1.27
L12D	2.98
L12P	2.8
L12V	3.06
R16E	2.57
R16P	2.87
R16L	2.55
R16I	2.08
R16H	2.6

Variant	protein stability index
R16Y	3.21
R16W	1.67
R16G	2.6
R16D	2.68
R16M	2.21
R16N	3.02
R16K	2.09
K11N	2.17
K11R	2.83
K11S	3.15
K11V	1.86
K11H	2.44
K11A	2.54
K11W	1.58
K11C	2.89
K11M	1.57
K11Y	1.66
K11L	2.79

Variants of: B2
Assay: as above
Details: c terminus: native

Variant	protein stability index
S22V	2.09
S22M	1.61
S22H	2.95
S22E	2.58
S22D	3.1
S22I	2.45
S22A	2.85
S22C	2.14
S22L	2.19
S22Y	2.65
S22N	2.11
S22K	3.02
S22T	2.42
S22P	2.45
S22F	2.44
L20W	2.95
L20C	1.8
L20P	3.94
L20A	3.14
L20Y	2.18
L20H	3.95
L20S	3.02

Variant	protein stability index
L20N	2.43
L20M	1.55
L20G	3.74
L20Q	3.83
L20D	3.66
L20K	3.8
L20E	3.99
L20V	2.81
L20F	2.55
L20I	2.9
L20T	2.32
M21H	3.33
M21C	4.02
M21W	2.82
M21F	2.78
M21I	1.92
M21G	2.91
M21Y	2.34
M21T	1.76
M21N	5.95
M21P	2.56
M21L	3.01

Variant	protein stability index
M21S	1.45
K19W	2.52
K19V	2.77
G23T	3
G23K	3.41
G23A	2.29
G23I	2.4
G23F	2.15
G23S	3
G23N	2.43
G23P	3.18
G23V	2.11
G23R	2.88
G23E	3.19
G23H	3.01
G23Q	2.78
G23Y	2.57
G23C	2.57
G23D	4.01
G23M	3.85
G23W	2.19
G23L	2.75
